Data: the supplement of paper PMC10724198
± gives the standard deviation of the averaged measurements.

Tested on: Saccharomyces cerevisiae
Assay: protein stability index of tFT-peptide fusion (C-terminal peptide) (PSI (0-1 scale)); higher = more stable (slower turnover)
Details: genetic background: wild type; temperature: 30 C
Procedure: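 MPS profiling in S. cerevisiae of the yeast C-terminome library: the last 12 aa of each annotated ORF are fused to the C-terminus of a sfGFP-mCherry timer, after a GGGS linker. Cells are FACS-sorted into 8 mCherry/sfGFP bins and deep-sequenced. PSI runs from 0 (unstable) to 1 (stable); wild type and das1Δ backgrounds, two technical replicates each.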

Sequence | protein stability index
EEFSSGDYSMDY [RIE1 C-terminal 12 aa] | 0.66 ± 0.025
EEMIRSSSLYDE [ACA1 C-terminal 12 aa] | 0.711 ± 0.029
EENENDCDSEIQ [RTS1 C-terminal 12 aa] | 0.696 ± 0.0094
EGVRNRRKALKK [ARO3 C-terminal 12 aa] | 0.669 ± 0.022
EGVSIIESTFIN [YLR225C C-terminal 12 aa] | 0.68 ± 0.051
EHCPGVNEDDHK [CMG1 C-terminal 12 aa] | 0.701 ± 0.026
EIKKIYQNEKKI [DPC7 C-terminal 12 aa] | 0.677 ± 0.029
EILSMPDLSKYQ [SDH5 C-terminal 12 aa] | 0.704 ± 0.044
EINNNLGVRLVD [DMA1 C-terminal 12 aa] | 0.697 ± 0.026
EIRNMVINSTKD [BFA1 C-terminal 12 aa] | 0.688 ± 0.021
EKDELDNIEVSK [QCR7 C-terminal 12 aa] | 0.683 ± 0.0078
EKFLGKKKTKTD [GPI16 C-terminal 12 aa] | 0.689 ± 0.05
EKKIATRGAFAC [MCO32 C-terminal 12 aa] | 0.7 ± 0.012
EKQYVKILDDTH [CSF1 C-terminal 12 aa] | 0.695 ± 0.037
EKRFPEVMMLEK [FET4 C-terminal 12 aa] | 0.679 ± 0.0099
EKVNEILRSTEK [GCD14 C-terminal 12 aa] | 0.717 ± 0.0097
EKWKINKKETVE [MOD5 C-terminal 12 aa] | 0.7095 ± 0.0026
ELAYKSFYALLD [VPS28 C-terminal 12 aa] | 0.702 ± 0.045
ELENEHVPWGKK [HNM1 C-terminal 12 aa] | 0.667 ± 0.015
ELIISKREIEKE [GEA1 C-terminal 12 aa] | 0.731 ± 0.079
ELKRSGKLTRSV [TRM7 C-terminal 12 aa] | 0.662 ± 0.013

Sequence | protein stability index
ELLYLIIAGLHI [FYV5 C-terminal 12 aa] | 0.7 ± 0.05
ELRERLLRPSKK [YPL245W C-terminal 12 aa] | 0.771 ± 0.032
ELTKQHGNKDSN [RTK1 C-terminal 12 aa] | 0.659 ± 0.0056
ENDDHLYIFGRN [TIM18 C-terminal 12 aa] | 0.731 ± 0.045
ENVEEDKEVHTN [PBI2 C-terminal 12 aa] | 0.6976 ± 0.0046
EPSLRGHLIFVL [YBR300C C-terminal 12 aa] | 0.5178 ± 0.0049
EQAAKYIEYLNL [RAD10 C-terminal 12 aa] | 0.603 ± 0.045
EQEVIFTDLTAY [ECM32 C-terminal 12 aa] | 0.7 ± 0.012
EQHNVLDTKKNE [SPC2 C-terminal 12 aa] | 0.649 ± 0.029
ERDGYYYLKRSS [VHT1 C-terminal 12 aa] | 0.694 ± 0.02
EREVNPSARSLG [YLR184W C-terminal 12 aa] | 0.684 ± 0.013
ESKKTKGEELTL [ARG1 C-terminal 12 aa] | 0.669 ± 0.015
ESLSNEAALKAN [RPO31 C-terminal 12 aa] | 0.397 ± 0.017
ESPTEDSVPHAE [CSA1 C-terminal 12 aa] | 0.687 ± 0.032
ESSARRDRKEHI [TMA23 C-terminal 12 aa] | 0.701 ± 0.041
ETDSESEVESIM [SYG1 C-terminal 12 aa] | 0.675 ± 0.025
EVKVDKVVYEKE [VPS29 C-terminal 12 aa] | 0.725 ± 0.04
EVSTEDTVHDEL [EUG1 C-terminal 12 aa] | 0.683 ± 0.041
EYLQSMKTSINR [SFB2 C-terminal 12 aa] | 0.695 ± 0.024
FARFITAIFHHI [MKC7 C-terminal 12 aa] | 0.153 ± 0.0061
FDALMNNDGDSD [TIF4632 C-terminal 12 aa] | 0.6696 ± 0.0037

Sequence | protein stability index
FDDSSSVSSKSD [GPC1 C-terminal 12 aa] | 0.695 ± 0.027
FDRVRLLVDKIT [HIR3 C-terminal 12 aa] | 0.234 ± 0.0042
FDSNVSVAVDER [SET5 C-terminal 12 aa] | 0.651 ± 0.027
FFLEECHRIGSK [HEM12 C-terminal 12 aa] | 0.7467 ± 0.007
FGGVRSPKMRRL [MRPS18 C-terminal 12 aa] | 0.681 ± 0.042
FGSNVNQQFNFN [SRP1 C-terminal 12 aa] | 0.719 ± 0.032
FHHMLIFIILKL [PRM2 C-terminal 12 aa] | 0.193 ± 0.028
FIVAEYIQQKKV [SRB4 C-terminal 12 aa] | 0.3321 ± 0.00069
FKMCETEMQPIK [YGR201C C-terminal 12 aa] | 0.669 ± 0.013
FLDDVLNGREII [YNL058C C-terminal 12 aa] | 0.752 ± 0.015
FNNILTKEMQKI [CLD1 C-terminal 12 aa] | 0.717 ± 0.049
FNVTKKSLTNHS [CDS1 C-terminal 12 aa] | 0.742 ± 0.049
FPVKSSPNAHTA [YLR334C C-terminal 12 aa] | 0.687 ± 0.026
FPWSHGTCIRGA [YOR376W C-terminal 12 aa] | 0.688 ± 0.01
FQREQVAKGGLL [CHL4 C-terminal 12 aa] | 0.69 ± 0.057
FRRRLGDRFKKD [MRX7 C-terminal 12 aa] | 0.695 ± 0.017
FSYIRSKQMQQK [MNE1 C-terminal 12 aa] | 0.6666 ± 0.0065
FTNALKNMYFSA [YJR037W C-terminal 12 aa] | 0.585 ± 0.019
FVYERMKWNFGI [LEU5 C-terminal 12 aa] | 0.275 ± 0.025
FWHEVVVFPIPN [YDR015C C-terminal 12 aa] | 0.716 ± 0.062
GAGVVAAAAMLL [TIR1 C-terminal 12 aa] | 0.713 ± 0.016

Sequence | protein stability index
GAGWSGFKKVFK [GYL1 C-terminal 12 aa] | 0.722 ± 0.042
GAHDDMDNGDDW [LAS17 C-terminal 12 aa] | 0.663 ± 0.015
GAIYVLQWANPT [YBR287W C-terminal 12 aa] | 0.662 ± 0.061
GATEKRKCAKPF [CSL4 C-terminal 12 aa] | 0.687 ± 0.029
GDDDIDDDDDMI [TVP15 C-terminal 12 aa] | 0.677 ± 0.023
GEDEENTVDSQY [YOL131W C-terminal 12 aa] | 0.6803 ± 0.0017
GEDVLEGGCLLI [YIR023C-A C-terminal 12 aa] | 0.727 ± 0.057
GELSVDEKKKIY [ERV29 C-terminal 12 aa] | 0.657 ± 0.041
GFADLDNFMSSL [HAA1 C-terminal 12 aa] | 0.689 ± 0.033
GGFLSFGGGYDE [AIM25 C-terminal 12 aa] | 0.726 ± 0.013
GGFSTEFNSCDT [MLF3 C-terminal 12 aa] | 0.721 ± 0.023
GGGASSIVIEKI [ERG10 C-terminal 12 aa] | 0.694 ± 0.011
GGQNSPGDMAVA [YDL199C C-terminal 12 aa] | 0.741 ± 0.068
GHNDGDINVWTL [CAF4 C-terminal 12 aa] | 0.7273 ± 0.0028
GIDLNSIKWSGH [NFS1 C-terminal 12 aa] | 0.709 ± 0.012
GINAGEIEIPEN [RPL12A C-terminal 12 aa] | 0.698 ± 0.012
GIPEEFKEFTEV [MND1 C-terminal 12 aa] | 0.7181 ± 0.0035
GIPNLLLPPHLV [TRM112 C-terminal 12 aa] | 0.691 ± 0.007
GIVPGDCLQEYD [FUS1 C-terminal 12 aa] | 0.685 ± 0.016
